Two molecules from article PMC9464236, “Biochemical characterization of a disease-causing human osteoprotegerin variant” (Scientific Reports, 2022) can be followed below.

For series [1], the target named is T1, recombinant soluble RANKL (sRANKL) (UniProt O35235 139-316).
T1 chain: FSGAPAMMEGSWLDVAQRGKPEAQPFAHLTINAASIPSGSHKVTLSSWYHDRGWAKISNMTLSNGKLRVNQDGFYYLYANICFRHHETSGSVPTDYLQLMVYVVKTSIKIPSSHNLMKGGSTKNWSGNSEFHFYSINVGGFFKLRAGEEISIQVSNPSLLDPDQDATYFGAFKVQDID
Description: ELISA. On the technique in general: An ELISA detects its analyte on a solid surface through an enzyme-linked reagent.

Series [2] concerns the molecule itself. Put plainly: SEC; Superdex 200, 25 mM HEPES pH 7.1, 150 mM NaCl; peak fractions from the heparin Sepharose column; ferritin (440 kDa) and IgG (150 kDa) as markers. In general terms: Size exclusion chromatography separates by hydrodynamic size, large species first.

“And” between values parts separate entries of the source, which are not always exact repeats. Equal entries are not always repeated.

By Kd is commonly meant the equilibrium constant for the complex coming apart. In general, stoichiometry N refers to the number of molecules, sites or subunits per partner or assembly.

B1: human osteoprotegerin Stop402Leu mutant with a 19-residue C-terminal appendage (OPG^+19) (receptor)
chain: ETFPPKYLHYDEETSHQLLCDKCPPGTYLKQHCTAKWKTVCAPCPDHYYTDSWHTSDECLYCSPVCKELQYVKQECNRTHNRVCECKEGRYLEIEFCLKHRSCPPGFGVVQAGTPERNTVCKRCPDGFFSNETSSKAPCRKHTNCSVFGLLLTQKGNATHDNICSGNSESTQKCGIDVTLCEEAFFRFAVPTKFTPNWLSVLVDNLPGTKVNAESVERIKRQHSSQEQTFQLLKLWKHQNKDQDIVKKIIQDIDLCENSVQRHIGHANLTFEQLRSLMESLPGKKVGAEDIEKTIKACKPSDQILKLLSLWRIKNGDQDTLKGLMHALKHSKTYHFPKTVTQSLKKTIRFLHSFTMYKLYQKLFLEMIGNQVQSVKISCLLLEMAIELFPHNWRDPMDE
notes: Osteoprotegerin (OPG, TNFRSF11B), human; complete open reading frame, residues up to 401, followed by the read-through appendage; 19-residue appendage 402-420 made by read-through of the mutated stop codon (Stop402Leu); Secreted; Mixture of higher-order oligomers; also called mutant hOPG; mutant OPG; source: 293-freestyle cells, transiently transfected; purified from medium (heparin Sepharose, …)
In the case of B1, the Kd in series [1] came out at 4.65 nM. The “stoichiometry N” value in series [2] was 12 and 6 and 4.

B2: wildtype human osteoprotegerin (WT OPG) (receptor, UniProt O00300 22-401, looked up)
chain: ETFPPKYLHYDEETSHQLLCDKCPPGTYLKQHCTAKWKTVCAPCPDHYYTDSWHTSDECLYCSPVCKELQYVKQECNRTHNRVCECKEGRYLEIEFCLKHRSCPPGFGVVQAGTPERNTVCKRCPDGFFSNETSSKAPCRKHTNCSVFGLLLTQKGNATHDNICSGNSESTQKCGIDVTLCEEAFFRFAVPTKFTPNWLSVLVDNLPGTKVNAESVERIKRQHSSQEQTFQLLKLWKHQNKDQDIVKKIIQDIDLCENSVQRHIGHANLTFEQLRSLMESLPGKKVGAEDIEKTIKACKPSDQILKLLSLWRIKNGDQDTLKGLMHALKHSKTYHFPKTVTQSLKKTIRFLHSFTMYKLYQKLFLEMIGNQVQSVKISCL
notes: Osteoprotegerin (OPG, TNFRSF11B), human; complete open reading frame of full-length human OPG in pcDNA3.4-TOPO; stop codon at position 402; Disulfide-linked dimer; assays used the SEC-purified dimer; also called WT hOPG; hOPG; source: 293-freestyle cells, transiently transfected; purified from medium (heparin Sepharose, Superdex 200)
Turning to B2, in series [1], the Kd was found to be 4.8 nM. In addition, the “stoichiometry N” value in series [2] was found to be 2.
